Drawing on doi:10.64898/2025.12.26.696629, this text covers Kd for one molecule.

The data set concerns the target T1, SufR6-229-His6 (holo, [4Fe-4S]) (Mycobacterium tuberculosis H37Rv, UniProt O53151 30-253).
T1 sequence: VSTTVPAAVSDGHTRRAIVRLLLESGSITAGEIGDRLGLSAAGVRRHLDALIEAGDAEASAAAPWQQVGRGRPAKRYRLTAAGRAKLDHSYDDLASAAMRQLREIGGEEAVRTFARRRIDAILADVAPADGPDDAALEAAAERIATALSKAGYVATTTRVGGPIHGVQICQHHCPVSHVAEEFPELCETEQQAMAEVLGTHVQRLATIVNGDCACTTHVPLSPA
The data set can be described thus: MST.

B1: PsufR 50-bp (dsDNA)
DNA 1: CCGATCAACGGAATTTTGTCACACTGATGTTGTGAAAATCCCGGCGGTCT
DNA 2: AGACCGCCGGGATTTTCACAACATCAGTGTGACAAAATTCCGTTGATCGG
One may read the Kd as the constant that tells how readily two partners part at equilibrium. The low end stands for higher affinity, the high end for lower affinity. Consider B1, for which binding was characterised by a dissociation constant (Kd) of 235 ± 45.8 nM.
